Measurements reported in paper doi:10.1101/2025.05.02.651858.

Biological target: ϕC31 integrase^S12A-RDF fusion protein (Streptomyces phage ϕC31) (UniProt Q9T221)
Assay: SEC-MALS

stoichiometry N: 4
Substance: ϕC31 integrase^S12A-RDF fusion protein (from UniProt Q9T221 1-605)
